# Assay results from US20030017991.
# Biological target: APP695 with C-terminal dilysine and the mutation KM-DA594-597 to SYEA594-597, expressed in HEK 293 derivative cells, P05067
# Sequence (P05067 whole entry, looked up, change not shown, tested part not stated): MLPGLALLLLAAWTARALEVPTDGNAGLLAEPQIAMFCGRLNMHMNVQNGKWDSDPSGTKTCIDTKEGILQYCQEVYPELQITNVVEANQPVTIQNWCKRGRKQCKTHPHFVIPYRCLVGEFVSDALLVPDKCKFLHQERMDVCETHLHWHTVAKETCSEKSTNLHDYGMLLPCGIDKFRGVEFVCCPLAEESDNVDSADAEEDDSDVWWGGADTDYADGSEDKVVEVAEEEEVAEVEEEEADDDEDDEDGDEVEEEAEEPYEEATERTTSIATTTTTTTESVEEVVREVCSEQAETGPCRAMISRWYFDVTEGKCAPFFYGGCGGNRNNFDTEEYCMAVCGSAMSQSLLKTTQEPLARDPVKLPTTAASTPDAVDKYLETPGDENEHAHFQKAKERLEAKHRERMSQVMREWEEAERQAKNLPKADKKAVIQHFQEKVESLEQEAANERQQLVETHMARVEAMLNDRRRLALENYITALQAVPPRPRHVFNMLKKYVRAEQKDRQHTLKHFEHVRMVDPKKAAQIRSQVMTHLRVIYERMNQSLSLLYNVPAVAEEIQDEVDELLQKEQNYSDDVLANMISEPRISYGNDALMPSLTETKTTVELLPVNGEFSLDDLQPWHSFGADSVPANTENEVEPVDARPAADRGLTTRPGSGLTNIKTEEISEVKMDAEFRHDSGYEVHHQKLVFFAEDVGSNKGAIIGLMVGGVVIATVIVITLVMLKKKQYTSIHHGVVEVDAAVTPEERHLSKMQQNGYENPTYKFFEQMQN
protein,measurement,value
Hu-Asp2 expressed in a stable HEK-293 derivative cell line (higher levels of Hu-Asp2) (protein) ETDEEPEEPGRRGSFVEMVDNLRGKSGQGYYVEMTVGSPPQTLNILVDTGSSNFAVGAAPHPFLHRYYQRQLSSTYRDLRKGVYVPYTQGKWEGELGTDLVSIPHGPNVTVRANIAAITESDKFFINGSNWEGILGLAYAEIARPDDSLEPFFDSLVKQTHVPNLFSLHLCGAGFPLNQSEVLASVGGSMIIGGIDHSLYTGSLWYTPIRREWYYEVIIVRVEINGQDLKMDCKEYNYDKSIVDSGTTNLRLPKKVFEAAVKSIKAASSTEKFPDGFWLGEQLVCWQAGTTPWNIFPVISLYLMGEVTNQSFRITILPQQYLRPVEDVATSQDDCYKFAISQSSTGTVMGAVIMEGFYVVFDRARKRIGFAVSACHVHDEFRTAAVEGPFVTLDMEDCGYNIPQTDESTLMTIAYVMAAICALFMLPLCLMVCQWRCLRCLRQQHDDFADDISLLK,production of the β-secretase cleavage product CTF-99 (Western blot with antibody C8),both mutant APP variants were proficiently cleaved by Asp2
